Patent US20210145750A1, “COMPLEX, pH SENSITIVE COMPOSITION INCLUDING COMPLEX, AND METHOD FOR PRODUCING COMPLEX” (TERUMO KABUSHIKI KAISHA, priority 2017, published 2021)
Several values for one entry are separate records, joined by “and”; a condition that tells them apart may be missing. Equal entries are not always repeated.

Legend:
[1] = Leaching test: leakage (membrane disruptive function); format: biochemical; conditions: sample not acid-aggregated
Protocol: Herein, the term “membrane disruptive function” means a function of causing leakage in a leaching test. Herein, the leaching test in the present specification is a test in which liposomes (dispersion) including an aqueous solution containing a quenching substance and a fluorescent substance, and an evaluation sample dispersion such as a solution containing a complex (aggregate of a pH sensitive carrier supporting a physiologically active substance) are added to an aqueous solution whose pH is adjusted to a predetermined level, followed by incubating the aqueous solution at 37° C. for 90 minutes or 30 minutes and measuring the fluorescence of the aqueous solution. According to this method, an amount of a fluorescent substance leached out from the liposomes can be measured, from which the liposome membrane disruptive function of the complex can be confirmed.
Herein, the expression “to develop a membrane disruptive function promoting effect” means to satisfy both of requirements (1) and (2): (1) in the leaching test, a leakage at a predetermined pH that is less than a physiological pH increases compared to a leakage at the physiological pH and the amount of increase is larger than the amount of increase in a case where the pH sensitive compound alone is subjected to the test; and (2) in the leaching test at a predetermined pH less than the physiological pH, a leakage of the complex is more than the sum of a leakage of the pH sensitive compound alone and a leakage of the amphipathic substance alone. More specifically, to develop a membrane disruptive function promoting effect means that, in the leaching test at a pH of 7.4 and at a pH of 5.0 or 4.5, a leakage Lc of the complex, a leakage La of the pH sensitive compound alone, and a leakage Lb of the amphipathic substance alone satisfy both the following relations. That is, the above (1) is represented by the following Formula (1) and the above (2) is represented by the following Formula (2). […]
3,000 nmol of EYPC (egg yolk phosphatidylcholine) dissolved in chloroform was measured and introduced into a 10-mL pear-shaped flask, and a thin film was produced using a rotary evaporator (BuCHI). […]
Meanwhile, the case of an EYPC liposome dispersion liquid only was designated as 0%, the value obtained in a case in which 30 μL of Triton-X100 diluted to ten time was added was designated as 100%, and the leakage was calculated.
Specifically, the leakage was calculated according to the following formula 4. In the following formula, the fluorescence intensity thus measured was designated as L, the fluorescence intensity of only the EYPC liposome dispersion liquid encapsulating a fluorescent substance was designated as L0, and the fluorescence intensity in the case of having Triton-X100 added thereto was designated as L100.

[2] = Integration of peptide with pH sensitive carrier: absorbance at 750 nm (Lowry kit), 0.22-μm filtration; format: physicochemical; conditions: for peptide-derived absorbance: mixed liquid with the pH sensitive carrier at a neutral pH; for absorbance of the solution after filtration: pH lowered to obtain an aggregate of the pH sensitive carrier
Protocol: (§1) When a liquid including the complex obtained as described above is treated with a filter (for example, having a pore size of 0.22 μm), and the concentrations of the physiologically active substance before and after a filtration treatment are measured, the integration ratio of the physiologically active substance (proportion of the amount of the physiologically active substance incorporated into an aggregate of the pH sensitive carrier with respect to the total amount of the physiologically active substance added) can be checked. Here, the concentration of the physiologically active substance can be measured by any known method. Meanwhile, in the present specification, the integration efficiency of the physiologically active substance is defined as a value calculated by the following formula 3 based on the measurement of the absorbance before and after a filtration treatment. At this time, the absorbance may be measured at a wavelength corresponding to the absorption wavelength range of the physiologically active substance (for example, 280 nm in the case of a protein or a peptide, and 260 nm in the case of a nucleic acid). Alternatively, the liquid is colored using a commercially available quantification kit, and then the absorbance may be measured at a wavelength that is recommended by the protocol of the kit.
(§2) Integration efficiency of physiologically active substance (%)=[(Absorbance before filtration treatment−Absorbance after filtration treatment)/(Absorbance before filtration treatment)]×100 (Formula 3)
[…] and […] were used as peptides, and the concentration of the peptide was adjusted to 0.8 mg/mL. […] The pH at the time of preparing an aggregate of the pH sensitive carrier was adjusted to 4 using 1 N sulfuric acid. The time for standing was set to 2 hours. The mixed liquid was passed through a 0.22-μm filter, the liquid before and after filtration was colored using a peptide quantification kit (Lowry kit, manufactured by NACALAI TESQUE, INC.), and measurement of the absorbance at a wavelength of 750 nm was carried out.

[3] = Integration of OVA with pH sensitive carrier: absorbance at 595 nm (CBB) before and after 0.22-μm filtration; format: physicochemical; conditions: for integration efficiency for OVA based on the change in the absorbance: DLPC 1,000 nmol in 1 mL
Protocol: as §1, §2
2. Next, separation of the protein was checked. PBS at pH 7.4 containing OVA was passed through a 0.22-μm filter similarly to the previous operation. The liquid before and after the filtration treatment was colored using a protein quantification kit (protein assay CBB solution, manufactured by NACALAI TESQUE, INC.), and measurement of the absorbance at a wavelength of 595 nm was performed. […] Meanwhile, the absorbance was converted to concentration using a calibration curve, and while the OVA concentration before filtration was 0.81 mg/mL, the OVA concentration after filtration was 0.79 mg/mL. The concentrations thus obtained were consistent with the feed concentration (FIG. 3B). It was confirmed that free OVA all escaped without being captured by the filtration. Therefore, it was considered that integration of the aggregate of the pH sensitive carrier and the protein can be evaluated by measuring the protein concentrations before and after passage through a filter (pore diameter 0.22 μm).
OVA was mixed with a dispersion liquid of the pH sensitive carrier, and a mixed liquid was prepared. Subsequently, the mixed liquid was passed through a filter by a test method similar to section 2. of Experiment 2, and the change in the absorbance (corresponding to the OVA concentration) before and after a filtration treatment was investigated. […]

[4] = aggregate of DLPC-deoxycholic acid carrier, pH 4, 2 hours
[5] = OVA 0.8 mg/mL, 1,000 nmol amphiphilic substance and 1,600 nmol pH sensitive compound in 1 mL, pH 4, 1 hour, listed as OVA only
[6] = PBS at pH 7.4, no carrier, from calibration curve

With `CCCCCCCCCCCC(=O)OC[C@H](COP(=O)([O-])OCC[N+](C)(C)C)OC(=O)CCCCCCCCCCC` [DLPC alone, 1,2-dilauroyl-sn-glycero-3-phosphatidylcholine] the Leakage ([1]; leaching test at pH 5.0) was 2.587% and 4.587% and the Leakage ([1]; leaching test at pH 7.4) was 1.188% and 2.688%.

With RGPESRLL the peptide-derived absorbance ([2]; RGPESRLL) was 1.40, the “absorbance of the solution after filtration” value ([2]; RGPESRLL) was 0.82 and the “integration efficiency of the RGPESRLL peptide based on the change in absorbance” value [2, 4] was “about 41%”.

In the case of SIINFEKL, the “integration efficiency of the SIINFEKL peptide based on the change in absorbance” value [2, 4] is reported as “about 27%”, the peptide-derived absorbance [2] is reported as 0.44 and the “absorbance of the solution after filtration” value [2] is reported as 0.32.

B1: OVA: Model protein: OVA (molecular weight 45 kDa, manufactured by Sigma-Aldrich Corp.) (protein, UniProt P01012 2-386, looked up)
Ovalbumin: GSIGAASMEFCFDVFKELKVHHANENIFYCPIAIMSALAMVYLGAKDSTRTQINKVVRFDKLPGFGDSIEAQCGTSVNVHSSLRDILNQITKPNDVYSFSLASRLYAEERYPILPEYLQCVKELYRGGLEPINFQTAADQARELINSWVESQTNGIIRNVLQPSSVDSQTAMVLVNAIVFKGLWEKAFKDEDTQAMPFRVTEQESKPVQMMYQIGLFRVASMASEKMKILELPFASGTMSMLVLLPDEVSGLEQLESIINFEKLTEWTSSNVMEERKIKVYLPRMKMEEKYNLTSVLMAMGITDVFSSSANLSGISSAESLKISQAVHAAHAEINEAGREVVGSAEAGVDAASVSEEFRADHPFLFCIKHIATNAVLFFGRCVSP
With B1 the “Absorbance after filtration (corresponding to the OVA concentration)” value [3, 5] was 0.651 and 0.533, the “Absorbance before filtration (corresponding to the OVA concentration)” value [3, 5] was 0.661 and 0.588 and the “OVA concentration after filtration” value [3, 6] was 0.79 mg/mL. The “OVA concentration before filtration” value [3, 6] was 0.81 mg/mL, the “Absorbance at 595 nm before filtration” value ([3]; PBS at pH 7.4 containing OVA, no carrier) was 0.616 and the “Absorbance at 595 nm after filtration” value ([3]; PBS at pH 7.4 containing OVA, no carrier, 0.22-μm filter) was 0.601. For the same molecule, the “integration efficiency for OVA based on the change in the absorbance” value ([3]; carrier with deoxycholic acid 400 nmol/mL, pH 4) was “about 42%”, the “integration efficiency for OVA based on the change in the absorbance” value ([3]; carrier with deoxycholic acid 1,600 nmol/mL, pH 4) was “about 60%” and the “integration efficiency for OVA based on the change in the absorbance” value ([3]; carrier with deoxycholic acid 6,400 nmol/mL, pH 4) was “about 64%”.
